The chains are these.
B19: Chikungunya/SL-CK1 E2 glycoprotein (natural protein)
chain: not shown
notes: E2 glycoprotein of Chikungunya virus strain SL-CK1, recombinant, about 40 kD on the blot; also called CHIKV E2; E2 protein; source: bought: Sino Biological

The target of experiment [1] is B19.
Experiment [2] concerns the target T1, E2 glycoprotein of Chikungunya/human/China/GD134/2010, on virions and in infected Vero cells (Chikungunya virus …).
T1 construct: also called CHIKV virion; CHIKV virus
Kind of experiment: […]; antibodies 10 ug/mL, […]. As to conditions: one partner purified.

For another experiment, the target named is T2, P10-LKIQVSLQIG (Chikungunya virus, SL-CK1).
T2 construct: 10-mer of the Chikungunya/SL-CK1 E2 glycoprotein, residues 46 to 55, domain A
T2 chain: LKIQVSLQIG
Description: ELISA; peptide ELISA: each 10-mer peptide coated at 1 ug/mL in carbonate buffer pH 9.6, 2 ug/mL antibodies, HRP anti-6xHis. As to conditions: both partners purified. A general note: An ELISA detects its analyte on a solid surface through an enzyme-linked reagent.

For experiment [3], the target named is B19. Description: SPR; LSPR (OpenSPR, Nicoya): E2 protein immobilised on a COOH chip by EDC/NHS, antibodies flowed at 20 uL/min in PBS pH 7.4, 240 s binding, 360 s dissociation, One to One model. The following applies: both partners purified. (In general: Surface plasmon resonance follows binding to a sensor surface in real time, without labels.)
In a further experiment the target is T3, P61-GEEPNYQEEW (Chikungunya virus, SL-CK1).
T3 construct: 10-mer of the Chikungunya/SL-CK1 E2 glycoprotein, domain C; printed as residues 331 to 340 in the results and as 301-310 in the discussion
T3 chain: GEEPNYQEEW
Kind of experiment: ELISA; peptide ELISA: each 10-mer peptide coated at 1 ug/mL in carbonate buffer pH 9.6, 2 ug/mL antibodies, HRP anti-6xHis. As to conditions: both partners purified.

A further experiment addresses T4, BiNb-2E8 (alpaca).
T4 construct: VHH Nb-2E8, as the VHH of m1; flexible linker, printed as (GGGGS) x 3; VHH Nb-2E8, second copy, as the VHH of m1; Read here as two VHH in tandem on one chain; also called bivalent Nb-2E8; homo-dimer Nb-2E8 fused to Fc; source: HEK293 cells, pcDNA 3.4, purified (protein A)
Description: SPR; LSPR (OpenSPR, Nicoya): E2 protein immobilised on a COOH chip by EDC/NHS, antibodies flowed at 20 uL/min in PBS pH 7.4, 240 s binding, 360 s dissociation, One to One model. The following applies: both partners purified.

In another experiment the target is T5, BiNb-3C5 (alpaca).
T5 construct: VHH Nb-3C5, as the VHH of m2; flexible linker, printed as (GGGGS) x 3; VHH Nb-3C5, second copy, as the VHH of m2; In the sandwich ELISA it was coupled with horseradish peroxidase (HRP Conjugation Kit); also called bivalent Nb-3C5; homo-dimer Nb-3C5 fused to Fc; source: HEK293 cells, pcDNA 3.4, purified (protein A)
The description is as above. The following applies: both partners purified.

In a further experiment the target is T6, TriNb-2E8 (alpaca).
T6 construct: VHH Nb-2E8, as the VHH of m1; flexible linker, printed as (GGGGS) x 3; VHH Nb-2E8, second copy, as the VHH of m1; VHH Nb-2E8, third copy, as the VHH of m1; also called trivalent Nb-2E8; homo-trimer Nb-2E8 fused to Fc; source: HEK293 cells, pcDNA 3.4, purified (protein A)
Described as above. The following applies: both partners purified.

The target of the next experiment is T7, TriNb-3C5 (alpaca).
T7 construct: VHH Nb-3C5, as the VHH of m2; flexible linker, printed as (GGGGS) x 3; VHH Nb-3C5, second copy, as the VHH of m2; VHH Nb-3C5, third copy, as the VHH of m2; also called trivalent Nb-3C5; homo-trimer Nb-3C5 fused to Fc; source: HEK293 cells, pcDNA 3.4, purified (protein A)
The description is as above. As to conditions: both partners purified.

In general, Kd refers to a measure of binding affinity in units of concentration.

B1: 4F8 (Nb-4F8) (VHH)
VHH: AVQLVESGGGTAQAGGPLRLSCKASGRSFSVGTMAWFRQVPGKEREFLVRDSQKGDGTVYAGSVEGRFTISRDYAKNTMDLQMNSLKPEDTAVYYCAADRGTVYGTREDLYDYWGQGTQVTVSS
B1: the binding result in experiment [1] is on record as “binds”.

B2: 4C7 (Nb-4C7) (VHH)
VHH: AVQLVESGGGLVQAGGSLRLSCATSGRTLGTYGWFRQAPGKEREFVARFLRNNGLTEYADSVKGRFTISRDDAKNTVELQMIMLKPEDTAVYYCTADPDAVYSRSPALWVYWGQGTQVTVSS
For the molecule B2, in [1], the binding result is “binds”.

B3: 2A3 (Nb-2A3) (VHH)
VHH: AVQLVESGGGLVPTGGSLRLSCTASGRTDNLYTVGWFRQAPGKERELIARITEKGGPTYYADSVKGRFSISTHKSKNAIYLQMNSVKPEDTAVYYCVADRGTVYGTREDLYDYWGQGTQVTVSS
In the case of B3, the binding result in [1] was “binds”.

B4: 1H7 (Nb-1H7) (VHH)
VHH: AVQLVESGGGLVQAGGSLRISCLASGPPFTDYTMGWFRQAPGKEREFVARITNHGGGTHYADSVKGRFTISRDYATNTVYLQMNSLKPEDTAVYYCAADRGAVYGTREDLYDYWGQGTQVTVSS
As to B4, in experiment [1], the binding result is recorded as “binds”.

B5: 4H6 (Nb-4H6) (VHH)
VHH: AVQLVESGGGLVQPGGSLGISCVASGPPFTDYTLGWFRQAPGKEREFVARITNHGGGTHYADSVKGRFTISREYATNTVYLQMNSLKPEDTAVYYCAADRGAVYGTREDLYDYWGQGTQVTVSS
As for B5, in experiment [1], the binding result is listed as “binds”.

B6: 1H3 (Nb-1H3) (VHH)
VHH: AVQLVESGGGLVQAGGSLRLSCAASVHTFTMPTMGWFRQAPGKGRELVARFNANINSTYYGDSVKGRFTISRDFAKNTVYLHMSSLRPEDTAVYYCVADRGVVFGTREDLYDYWGQGTQVTVSS
B6: the binding result in experiment [1] was “binds”.

B7: 4C1 (Nb-4C1) (VHH)
VHH: AVQLVESGGGLVQAGGSLRLSCAASVHTFTMPTMGWFRQAPEKGRELVARFNANINSTYYGDSVKGRFTISRDFAKNTVYLHMSSLRPEDTAVYYCVADRGVFFGTREDLYDYWGQGTQVTVSS
Turning to B7, the binding result in experiment [1] is recorded as “binds”.

B8: 1E1 (Nb-1E1) (VHH)
VHH: AVQLVESGGGLVETGESLRLSCAASGRTIENYHVGWFRQTSGPEREFLAATSRGNGISTIADSVKGRFTISRDNAKNTVYLQMNALKPEDTAVYICAADDANFVNYRSYRAWDNWGQGTQVTVSS
For the molecule B8, the binding result in experiment [1] is on record as “binds”.

B9: 2B5 (Nb-2B5) (VHH)
VHH: AVQLVESGGGLVQAGGSLRLSCAASGRTIENYHVGWFRQTSGPEREFLAATSRGNGISTIADSVKGRFTISRDNAKNTVYLQMNALKPEDTAVYICAADDANFVNYRSYRAWDNWGQGTQVTVSS
As to B9, the binding result in [1] is given as “binds”.

B10: 1G6 (Nb-1G6) (VHH)
VHH: AVQLVESGGGLVQAGGSLRLSCAASGRTFSTYTMGWFRQAPGKEREFVARIIENTGNIYYADSVKGRFTISEDNAKNTLYLQMNNLKPEDTAVYYCVGDRGAVYGTRPDLYDHWGQGTQVTVSS
B10: in [1], the binding result is listed as “binds”.

B11: 1F1 (Nb-1F1) (VHH)
VHH: AVQLVESGGGLVQAGGSLRLSCAASGRSFSAYTMAWFRQAPGKEREWMASIVRSGGPTYYADSVKDRFTISRENARNTVYLQMNSLKPEDTAVYYCAADLGWTYSRSPELFGSWGQGTQVTVSS
On to B11, for which the binding result in experiment [1] is recorded as “binds”.

B12: 2B4 (Nb-2B4) (VHH)
VHH: AVQLVESGGGLVQAGGSLRLSCAASGRSSSAYTMAWFRQAPGKEREWMASIVRSGGPTYYADSVKDRFTISRENARNTVYLQMNSLKPEDTAVYYCAADLGWTYSRSPELFGSWGQGTQVTVSS
For B12, the binding result in [1] is given as “binds”.

B13: MoNb-3C5 (VHH)
VHH: AVQLVESGGGLVQAGGSLRLSCAASGRSFSAYTMAWFRQAPGKEREWMASIVRSGGPTYYADSVKDRFTISRENARNTAYLQMNSLKPEDTAVYYCAADLGWTYSRSPELFGSWGQGTQVTVSS
notes: About 28 kDa with the His-SUMO tag; detected through SUMO (anti-SMT3) or the His tag; also called monovalent VHH antibody Nb-3C5; SUMO-tagged VHH; not shown: His6, N-terminal, kept; SUMO, N-terminal, kept
In the case of B13, the binding result (in [2]; in the experiment with P10-LKIQVSLQIG) was “binds” throughout. This molecule displayed a dissociation constant (Kd) in experiment [3] of 368 nM.

B14: MoNb-2E8 (VHH)
VHH: AVQLVESGGGLVQAGGSLRLSCAASGRSFSAYTMAWFRQAPGKEREWMASIVRSGGPTYYADSVKDRFTISRENARNTVYLQMNSLKPEDTAVYYCAADLGWTYSRSRELFGSWGQGTQVTVSS
notes: About 28 kDa with the His-SUMO tag; detected through SUMO (anti-SMT3) or the His tag; also called monovalent VHH antibody Nb-2E8; SUMO-tagged VHH; not shown: His6, N-terminal, kept; SUMO, N-terminal, kept
Regarding B14, the binding result (in experiment [2]; with P61-GEEPNYQEEW) was “binds” throughout. This molecule gave a dissociation constant Kd in experiment [3] of 101 nM.

B15: 2F7 (Nb-2F7) (VHH)
VHH: AVAGESGGGVVQAGGSLRLSCAASGRTFSPYAMGWFRQAPGKERESVAAISWSAGDTYYADSVKGRFTISRDNAKNTVYLQMNSLKPEDTAVYYCASRNTYFSDSGYSNFYAYDYWGQGTQVTVSS
For the molecule B15, the binding result in experiment [1] is reported as “binds”.

B16: 1A12 (Nb-1A12) (VHH)
VHH: AVQLVESGGGLVQAGGSLRLSCAASGRALTSGTMGWFRQAPGKEREFVARANVKGDGTFYADAVKGRFTISRDYAKNTVYLQMNNLKPEDTAVYFCAADRGTVYGTSEDLYDYWGQGTQVTVSS
For B16, the binding result in experiment [1] is listed as “binds”.

B17: 3E9 (Nb-3E9) (VHH)
VHH: AVQLVESGGGLVQAGGSLSLSCAASGRTFSAGTMGWFRQAPGKERELIARVIKNGGSTYYTDSVKGRFTIAADFAKSTVYLQMNSLKPEDTALYYCAADRGAVFGTRQELYDDWGQGTQVTVSS
B17: the binding result in [1] is on record as “binds”.

B18: 1C11 (Nb-1C11) (VHH)
VHH: AVQLVESGGGLVLAGASLRLSCADSGSGRSLGTYGWFRQAPGKEREFVARISQRGGIDYTDSVKGRFTISRDNSKNTVNLQMTTLTPEDTAVYYCAADPDTVYSRSPALWKYWGQGTQVTVSS
B18: in experiment [1], the binding result is “binds”.

As for B19, the dissociation constant (Kd) with BiNb-2E8 amounted to 2.59 nM; with BiNb-3C5, 20.7 nM; in the experiment with TriNb-2E8 it was 4.52 nM; with TriNb-3C5, 10.4 nM.

B20: 1D1 (Nb-1D1) (VHH)
VHH: AVQLVESGGGLVQAGGSLRLSCEASGHTFSSGTMGWFRQAPGMEREFVARINEKGDGTFYADSVKGRFTISRDYAKNTVYLQMNTLKPEDTAVYYCVADRGTVYGTREDLYDYWGQGTQVTVSS
B20: the binding result in experiment [1] was “binds”.

B21: 4G10 (Nb-4G10) (VHH)
VHH: AVQLVESGGGLVQAGGSLRLSCEASGHTFNSGTMGWFRQAPGMEREFVARINEKGDGTFYADSVKGRFTISRDYTKNTVYLQMNTLKPEDTAVYYCVADRGTVYGTREDLYDYWGQGTQVTVSS
For the molecule B21, the binding result in experiment [1] was “binds”.

Source of the values: article PMC9107221 (Journal of Nanobiotechnology, 2022).
